Laboratory results taken from patent US20140193915, “COMPOSITIONS AND METHODS FOR CUSTOM SITE-SPECIFIC DNA RECOMBINASES” (Monsanto Technology, LLC, published 2014).

What was measured:
Assay in all cases: cell_activity; E. coli
Conditions in all cases: tags: 6-His
sN-TALER IIa-1 = target: T1, sN-TALER IIa-1 (synthetic)
T1 chain: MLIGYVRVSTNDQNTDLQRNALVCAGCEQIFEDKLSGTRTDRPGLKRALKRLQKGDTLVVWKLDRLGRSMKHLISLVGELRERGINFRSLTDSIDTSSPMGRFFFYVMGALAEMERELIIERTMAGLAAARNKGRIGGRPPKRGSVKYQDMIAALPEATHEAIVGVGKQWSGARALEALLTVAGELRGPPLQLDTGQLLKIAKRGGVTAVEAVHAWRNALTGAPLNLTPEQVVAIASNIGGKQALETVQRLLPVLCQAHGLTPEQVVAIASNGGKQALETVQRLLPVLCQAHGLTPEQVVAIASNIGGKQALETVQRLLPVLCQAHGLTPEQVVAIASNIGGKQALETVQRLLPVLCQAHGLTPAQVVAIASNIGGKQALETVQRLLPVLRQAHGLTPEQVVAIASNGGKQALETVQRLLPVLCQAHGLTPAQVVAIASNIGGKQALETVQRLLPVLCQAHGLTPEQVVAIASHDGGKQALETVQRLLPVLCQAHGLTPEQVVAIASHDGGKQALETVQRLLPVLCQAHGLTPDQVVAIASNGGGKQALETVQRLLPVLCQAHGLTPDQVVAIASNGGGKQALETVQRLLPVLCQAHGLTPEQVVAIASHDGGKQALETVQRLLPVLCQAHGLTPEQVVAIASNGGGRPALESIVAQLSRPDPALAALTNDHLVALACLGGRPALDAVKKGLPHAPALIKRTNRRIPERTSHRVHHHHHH
How it was run: (§1)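 DH5alpha cells co-transformed (heat shock or electroporation) with N-TALER expression and reporter plasmids at ~1:1 mass ratio; reporter alone as control. Plated on chloramphenicol/kanamycin/X-gal, grown 37° C. for 18 to 36 hours; recombination scored by colony colour.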

sN-TALER IIb-1 = target: T2, sN-TALER IIb-1 (synthetic)
T2 chain: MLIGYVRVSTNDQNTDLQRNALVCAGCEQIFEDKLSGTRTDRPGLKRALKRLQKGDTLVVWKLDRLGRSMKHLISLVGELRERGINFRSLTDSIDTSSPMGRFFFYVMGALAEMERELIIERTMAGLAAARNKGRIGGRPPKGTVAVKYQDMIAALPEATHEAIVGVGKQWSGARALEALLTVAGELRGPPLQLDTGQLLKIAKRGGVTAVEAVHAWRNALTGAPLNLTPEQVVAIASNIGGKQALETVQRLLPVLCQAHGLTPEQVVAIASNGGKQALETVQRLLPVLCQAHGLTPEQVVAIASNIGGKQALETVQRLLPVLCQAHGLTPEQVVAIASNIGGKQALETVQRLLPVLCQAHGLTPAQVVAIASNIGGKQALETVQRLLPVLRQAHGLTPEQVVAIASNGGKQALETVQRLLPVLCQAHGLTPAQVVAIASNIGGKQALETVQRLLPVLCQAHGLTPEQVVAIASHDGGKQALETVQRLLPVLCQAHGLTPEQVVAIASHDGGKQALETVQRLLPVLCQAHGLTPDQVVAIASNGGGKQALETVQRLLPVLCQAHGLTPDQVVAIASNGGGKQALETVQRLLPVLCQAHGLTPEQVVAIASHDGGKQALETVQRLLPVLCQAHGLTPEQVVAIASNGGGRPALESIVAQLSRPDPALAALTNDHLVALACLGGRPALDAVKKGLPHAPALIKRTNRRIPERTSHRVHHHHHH
How it was run: as §1

sN-TALER IV-5 = target: T3, sN-TALER IV-5 (synthetic)
T3 chain: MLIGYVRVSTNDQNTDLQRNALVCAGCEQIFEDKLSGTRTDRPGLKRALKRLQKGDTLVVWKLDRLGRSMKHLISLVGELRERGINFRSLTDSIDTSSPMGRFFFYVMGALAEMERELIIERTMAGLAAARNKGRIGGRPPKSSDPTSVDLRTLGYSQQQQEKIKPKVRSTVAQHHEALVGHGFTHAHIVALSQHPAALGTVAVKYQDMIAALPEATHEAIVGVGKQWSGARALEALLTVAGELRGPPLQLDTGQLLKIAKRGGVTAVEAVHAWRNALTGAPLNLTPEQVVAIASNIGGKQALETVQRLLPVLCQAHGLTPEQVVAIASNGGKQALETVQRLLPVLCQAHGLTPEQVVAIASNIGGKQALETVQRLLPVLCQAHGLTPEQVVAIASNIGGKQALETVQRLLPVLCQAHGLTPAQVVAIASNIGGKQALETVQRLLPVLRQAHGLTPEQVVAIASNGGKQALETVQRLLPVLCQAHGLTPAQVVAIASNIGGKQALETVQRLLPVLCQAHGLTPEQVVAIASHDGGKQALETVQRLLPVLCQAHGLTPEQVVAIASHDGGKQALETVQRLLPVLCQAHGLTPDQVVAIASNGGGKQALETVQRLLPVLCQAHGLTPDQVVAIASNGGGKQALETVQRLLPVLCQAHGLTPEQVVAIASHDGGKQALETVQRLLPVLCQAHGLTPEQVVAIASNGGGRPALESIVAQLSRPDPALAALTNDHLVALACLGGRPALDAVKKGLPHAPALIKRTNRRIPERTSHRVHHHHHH
How it was run: as §1

Row | Binder | activity (sN-TALER IIa-1) | activity (sN-TALER IIb-1) | activity (sN-TALER IV-5)
1 | Gin18TALE+0 (dsDNA) DNA 1: AGAAGGTATTTATACCAAAACCATGGTTTACATATAAATACCTTCT DNA 2: AGAAGGTATTTATATGTAAACCATGGTTTTGGTATAAATACCTTCT | 4 score | 3 score | –
2 | Gin20TALE+0 (dsDNA) DNA 1: AGAAGGTATTTATATCCAAAACCATGGTTTACAGTATAAATACCTTCT DNA 2: AGAAGGTATTTATACTGTAAACCATGGTTTTGGATATAAATACCTTCT | – | – | 4.5 score
